T1: DFNB31_2, Q9P202
T1 sequence (Q9P202 274-371, limits assumed, looked up): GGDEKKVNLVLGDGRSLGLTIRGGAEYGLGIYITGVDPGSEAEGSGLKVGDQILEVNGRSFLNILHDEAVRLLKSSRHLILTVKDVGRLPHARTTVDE

T2: NHERF3_1, Q5T2W1
T2 sequence (Q5T2W1 4-100, limits assumed, looked up): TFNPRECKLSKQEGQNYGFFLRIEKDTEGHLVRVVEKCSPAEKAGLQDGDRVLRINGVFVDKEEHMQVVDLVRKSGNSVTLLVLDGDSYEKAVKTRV

T3: HTRA4, P83105
T3 sequence (P83105 378-476, limits assumed, looked up): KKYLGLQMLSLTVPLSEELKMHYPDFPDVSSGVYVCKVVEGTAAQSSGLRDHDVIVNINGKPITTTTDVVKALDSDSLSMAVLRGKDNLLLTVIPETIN

T4: MPDZ_10, O75970
T4 sequence (O75970 1624-1722, limits assumed, looked up): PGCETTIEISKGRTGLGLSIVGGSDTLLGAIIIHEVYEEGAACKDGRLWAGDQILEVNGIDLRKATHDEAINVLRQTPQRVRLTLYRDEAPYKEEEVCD

T5: RAPGEF6, Q8TEU7
T5 sequence (Q8TEU7 525-625, limits assumed, looked up): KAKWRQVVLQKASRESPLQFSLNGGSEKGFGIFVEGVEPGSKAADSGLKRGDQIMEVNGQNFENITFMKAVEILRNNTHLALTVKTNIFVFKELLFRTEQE

T6: DVL3, Q92997
T6 sequence (Q92997 244-331, limits assumed, looked up): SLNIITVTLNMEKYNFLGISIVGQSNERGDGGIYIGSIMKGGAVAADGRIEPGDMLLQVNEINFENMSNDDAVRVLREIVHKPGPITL

T7: LIN7B, Q9HAP6
T7 sequence (Q9HAP6 88-185, limits assumed, looked up): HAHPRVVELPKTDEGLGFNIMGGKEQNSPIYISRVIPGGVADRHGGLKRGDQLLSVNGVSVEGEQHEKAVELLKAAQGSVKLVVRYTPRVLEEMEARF

T8: SNTA1, Q13424
T8 sequence (Q13424 82-180, limits assumed, looked up): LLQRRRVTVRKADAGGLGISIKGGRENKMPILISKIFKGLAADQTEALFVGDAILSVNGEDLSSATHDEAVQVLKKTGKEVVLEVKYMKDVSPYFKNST

T9: SNTG1, Q9NSN8
T9 sequence (Q9NSN8 52-150, limits assumed, looked up): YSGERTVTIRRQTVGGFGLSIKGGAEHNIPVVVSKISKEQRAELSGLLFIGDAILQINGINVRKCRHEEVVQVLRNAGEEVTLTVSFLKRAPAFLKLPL

T10: SNTG2, Q9NY99
T10 sequence (Q9NY99 68-166, limits assumed, looked up): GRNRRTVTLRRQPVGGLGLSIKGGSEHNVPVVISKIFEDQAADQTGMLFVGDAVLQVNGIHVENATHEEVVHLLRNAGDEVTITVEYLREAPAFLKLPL

T11: TIAM2, Q8IVF5
T11 sequence (Q8IVF5 885-986, limits assumed, looked up): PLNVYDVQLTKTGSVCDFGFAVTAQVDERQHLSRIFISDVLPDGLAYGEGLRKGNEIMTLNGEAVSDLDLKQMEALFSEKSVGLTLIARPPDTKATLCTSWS

T12: DFNB31_1, Q9P202
T12 sequence (Q9P202 135-233, limits assumed, looked up): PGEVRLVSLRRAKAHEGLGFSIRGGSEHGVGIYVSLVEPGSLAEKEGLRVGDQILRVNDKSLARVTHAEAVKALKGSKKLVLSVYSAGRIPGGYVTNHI

T13: DLG3_3, Q92796
T13 sequence (Q92796 374-475, limits assumed, looked up): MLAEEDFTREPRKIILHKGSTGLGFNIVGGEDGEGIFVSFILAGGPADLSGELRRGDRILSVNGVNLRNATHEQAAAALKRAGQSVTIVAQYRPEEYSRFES


biological target: T1, DFNB31_2, Q9P202; test: holdup assay; parameters: key: below the threshold = too weak to quantify, mostly under pKd 3.1 to 4; details: plain residues with an end cap or a label only (N-terminal biotin on a linker: ado-ado)

pKd | Binder
below the threshold | STYCDYTIEI [FAM71C, Q8NEG0]
below the threshold | PLPPEEESWV [GAS2L2, Q8NHY3]

biological target: T2, NHERF3_1, Q5T2W1; test: holdup assay; parameters: key: below the threshold = too weak to quantify, mostly under pKd 3.1 to 4; details: plain residues with an end cap or a label only (N-terminal biotin on a linker: ado-ado)

pKd | Binder
below the threshold | STYCDYTIEI [FAM71C, Q8NEG0]
4.86 | PLPPEEESWV [GAS2L2, Q8NHY3]

biological target: T3, HTRA4, P83105; test: holdup assay; parameters: key: below the threshold = too weak to quantify, mostly under pKd 3.1 to 4; details: plain residues with an end cap or a label only (N-terminal biotin on a linker: ado-ado)

pKd | Binder
4.96 | STYCDYTIEI [FAM71C, Q8NEG0]
3.59 | PLPPEEESWV [GAS2L2, Q8NHY3]

biological target: PDLIM1, O00151; test: holdup assay; parameters: key: below the threshold = too weak to quantify, mostly under pKd 3.1 to 4; details: plain residues with an end cap or a label only (N-terminal biotin on a linker: ado-ado)
Sequence (O00151 1-87): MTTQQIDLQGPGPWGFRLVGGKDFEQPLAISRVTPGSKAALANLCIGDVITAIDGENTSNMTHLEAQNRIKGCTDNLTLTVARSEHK

pKd | Binder
below the threshold | STYCDYTIEI [FAM71C, Q8NEG0]
4.22 | PLPPEEESWV [GAS2L2, Q8NHY3]

biological target: T4, MPDZ_10, O75970; test: holdup assay; parameters: key: below the threshold = too weak to quantify, mostly under pKd 3.1 to 4; details: plain residues with an end cap or a label only (N-terminal biotin on a linker: ado-ado)

pKd | Binder
below the threshold | STYCDYTIEI [FAM71C, Q8NEG0]
below the threshold | PLPPEEESWV [GAS2L2, Q8NHY3]

biological target: T5, RAPGEF6, Q8TEU7; test: holdup assay; parameters: key: below the threshold = too weak to quantify, mostly under pKd 3.1 to 4; details: plain residues with an end cap or a label only (N-terminal biotin on a linker: ado-ado)

pKd | Binder
below the threshold | STYCDYTIEI [FAM71C, Q8NEG0]
3.6 | PLPPEEESWV [GAS2L2, Q8NHY3]

biological target: T6, DVL3, Q92997; test: holdup assay; parameters: key: below the threshold = too weak to quantify, mostly under pKd 3.1 to 4; details: plain residues with an end cap or a label only (N-terminal biotin on a linker: ado-ado)

pKd | Binder
4.01 | STYCDYTIEI [FAM71C, Q8NEG0]
4.01 | PLPPEEESWV [GAS2L2, Q8NHY3]

biological target: NOS1, P29475; test: holdup assay; parameters: key: below the threshold = too weak to quantify, mostly under pKd 3.1 to 4; details: plain residues with an end cap or a label only (N-terminal biotin on a linker: ado-ado)
Sequence (P29475 9-101): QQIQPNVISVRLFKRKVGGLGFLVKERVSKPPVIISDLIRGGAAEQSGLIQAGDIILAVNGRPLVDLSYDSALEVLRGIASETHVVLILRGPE

pKd | Binder
3.62 | STYCDYTIEI [FAM71C, Q8NEG0]
4.06 | PLPPEEESWV [GAS2L2, Q8NHY3]

biological target: IL16_4, Q14005; test: holdup assay; parameters: key: below the threshold = too weak to quantify, mostly under pKd 3.1 to 4; details: plain residues with an end cap or a label only (N-terminal biotin on a linker: ado-ado)
Sequence (Q14005 1229-1329): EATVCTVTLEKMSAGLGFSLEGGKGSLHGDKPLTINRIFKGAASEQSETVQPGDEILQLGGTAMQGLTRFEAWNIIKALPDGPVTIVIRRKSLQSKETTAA

pKd | Binder
below the threshold | STYCDYTIEI [FAM71C, Q8NEG0]
below the threshold | PLPPEEESWV [GAS2L2, Q8NHY3]

biological target: T7, LIN7B, Q9HAP6; test: holdup assay; parameters: key: below the threshold = too weak to quantify, mostly under pKd 3.1 to 4; details: plain residues with an end cap or a label only (N-terminal biotin on a linker: ado-ado)

pKd | Binder
below the threshold | STYCDYTIEI [FAM71C, Q8NEG0]
3.96 | PLPPEEESWV [GAS2L2, Q8NHY3]

biological target: T8, SNTA1, Q13424; test: holdup assay; parameters: key: below the threshold = too weak to quantify, mostly under pKd 3.1 to 4; details: plain residues with an end cap or a label only (N-terminal biotin on a linker: ado-ado)

pKd | Binder
below the threshold | STYCDYTIEI [FAM71C, Q8NEG0]
4.6 | PLPPEEESWV [GAS2L2, Q8NHY3]

biological target: IL16_1, Q14005; test: holdup assay; parameters: key: below the threshold = too weak to quantify, mostly under pKd 3.1 to 4; details: plain residues with an end cap or a label only (N-terminal biotin on a linker: ado-ado)
Sequence (Q14005 210-306): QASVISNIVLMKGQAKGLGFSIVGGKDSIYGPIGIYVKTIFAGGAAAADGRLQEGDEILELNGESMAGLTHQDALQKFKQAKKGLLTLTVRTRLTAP

pKd | Binder
below the threshold | STYCDYTIEI [FAM71C, Q8NEG0]
5.24 | PLPPEEESWV [GAS2L2, Q8NHY3]

biological target: T9, SNTG1, Q9NSN8; test: holdup assay; parameters: key: below the threshold = too weak to quantify, mostly under pKd 3.1 to 4; details: plain residues with an end cap or a label only (N-terminal biotin on a linker: ado-ado)

pKd | Binder
below the threshold | STYCDYTIEI [FAM71C, Q8NEG0]
5.6 | PLPPEEESWV [GAS2L2, Q8NHY3]

biological target: GORASP2, Q9H8Y8; test: holdup assay; parameters: key: below the threshold = too weak to quantify, mostly under pKd 3.1 to 4; details: plain residues with an end cap or a label only (N-terminal biotin on a linker: ado-ado)

pKd | Binder
4.41 | STYCDYTIEI [FAM71C, Q8NEG0]
4.48 | PLPPEEESWV [GAS2L2, Q8NHY3]

biological target: SCRIB_1, Q14160; test: holdup assay; parameters: key: below the threshold = too weak to quantify, mostly under pKd 3.1 to 4; details: plain residues with an end cap or a label only (N-terminal biotin on a linker: ado-ado)
Sequence (Q14160 718-814): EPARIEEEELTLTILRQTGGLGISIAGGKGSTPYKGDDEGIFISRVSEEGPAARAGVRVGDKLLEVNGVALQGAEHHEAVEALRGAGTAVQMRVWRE

pKd | Binder
below the threshold | STYCDYTIEI [FAM71C, Q8NEG0]
4.21 | PLPPEEESWV [GAS2L2, Q8NHY3]

biological target: T10, SNTG2, Q9NY99; test: holdup assay; parameters: key: below the threshold = too weak to quantify, mostly under pKd 3.1 to 4; details: plain residues with an end cap or a label only (N-terminal biotin on a linker: ado-ado)

pKd | Binder
below the threshold | STYCDYTIEI [FAM71C, Q8NEG0]
4.24 | PLPPEEESWV [GAS2L2, Q8NHY3]

biological target: DLG5_1, Q8TDM6; test: holdup assay; parameters: key: below the threshold = too weak to quantify, mostly under pKd 3.1 to 4; details: plain residues with an end cap or a label only (N-terminal biotin on a linker: ado-ado)
Sequence (Q8TDM6 617-713): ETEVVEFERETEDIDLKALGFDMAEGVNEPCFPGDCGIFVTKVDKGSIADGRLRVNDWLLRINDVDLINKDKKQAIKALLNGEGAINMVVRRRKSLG

pKd | Binder
below the threshold | STYCDYTIEI [FAM71C, Q8NEG0]
below the threshold | PLPPEEESWV [GAS2L2, Q8NHY3]

biological target: PARD3_3, Q8TEW0; test: holdup assay; parameters: key: below the threshold = too weak to quantify, mostly under pKd 3.1 to 4; details: plain residues with an end cap or a label only (N-terminal biotin on a linker: ado-ado)
Sequence (Q8TEW0 582-685): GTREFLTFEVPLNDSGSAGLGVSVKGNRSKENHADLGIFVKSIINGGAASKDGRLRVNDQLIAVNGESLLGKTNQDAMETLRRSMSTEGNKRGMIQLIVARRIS

pKd | Binder
5.15 | STYCDYTIEI [FAM71C, Q8NEG0]
4.75 | PLPPEEESWV [GAS2L2, Q8NHY3]

biological target: GRIP2_5, Q9C0E4; test: holdup assay; parameters: key: below the threshold = too weak to quantify, mostly under pKd 3.1 to 4; details: plain residues with an end cap or a label only (N-terminal biotin on a linker: ado-ado)
Sequence (Q9C0E4 544-642): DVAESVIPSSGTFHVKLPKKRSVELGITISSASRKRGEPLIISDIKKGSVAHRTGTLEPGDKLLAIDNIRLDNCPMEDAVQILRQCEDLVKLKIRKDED

pKd | Binder
below the threshold | STYCDYTIEI [FAM71C, Q8NEG0]
below the threshold | PLPPEEESWV [GAS2L2, Q8NHY3]

biological target: T11, TIAM2, Q8IVF5; test: holdup assay; parameters: key: below the threshold = too weak to quantify, mostly under pKd 3.1 to 4; details: plain residues with an end cap or a label only (N-terminal biotin on a linker: ado-ado)

pKd | Binder
4.15 | STYCDYTIEI [FAM71C, Q8NEG0]
4.17 | PLPPEEESWV [GAS2L2, Q8NHY3]

biological target: T12, DFNB31_1, Q9P202; test: holdup assay; parameters: key: below the threshold = too weak to quantify, mostly under pKd 3.1 to 4; details: plain residues with an end cap or a label only (N-terminal biotin on a linker: ado-ado)

pKd | Binder
below the threshold | STYCDYTIEI [FAM71C, Q8NEG0]
4.46 | PLPPEEESWV [GAS2L2, Q8NHY3]

biological target: FRMPD2_3, Q68DX3; test: holdup assay; parameters: key: below the threshold = too weak to quantify, mostly under pKd 3.1 to 4; details: plain residues with an end cap or a label only (N-terminal biotin on a linker: ado-ado)
Sequence (Q68DX3 1073-1166): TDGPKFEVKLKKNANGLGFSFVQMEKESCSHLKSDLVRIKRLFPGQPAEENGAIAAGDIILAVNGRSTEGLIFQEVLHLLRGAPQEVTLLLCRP

pKd | Binder
below the threshold | STYCDYTIEI [FAM71C, Q8NEG0]
4.04 | PLPPEEESWV [GAS2L2, Q8NHY3]

biological target: T13, DLG3_3, Q92796; test: holdup assay; parameters: key: below the threshold = too weak to quantify, mostly under pKd 3.1 to 4; details: plain residues with an end cap or a label only (N-terminal biotin on a linker: ado-ado)

pKd | Binder
below the threshold | STYCDYTIEI [FAM71C, Q8NEG0]
below the threshold | PLPPEEESWV [GAS2L2, Q8NHY3]

biological target: LIMK2, P53671; test: holdup assay; parameters: key: below the threshold = too weak to quantify, mostly under pKd 3.1 to 4; details: plain residues with an end cap or a label only (N-terminal biotin on a linker: ado-ado)
Sequence (P53671 143-248): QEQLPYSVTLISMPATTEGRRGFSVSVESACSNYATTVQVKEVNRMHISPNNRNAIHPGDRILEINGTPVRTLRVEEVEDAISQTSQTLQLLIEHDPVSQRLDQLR

pKd | Binder
below the threshold | STYCDYTIEI [FAM71C, Q8NEG0]
below the threshold | PLPPEEESWV [GAS2L2, Q8NHY3]

biological target: Inadl_8, Q8NI35; test: holdup assay; parameters: key: below the threshold = too weak to quantify, mostly under pKd 3.1 to 4; details: plain residues with an end cap or a label only (N-terminal biotin on a linker: ado-ado)
Sequence (Q8NI35 1425-1530): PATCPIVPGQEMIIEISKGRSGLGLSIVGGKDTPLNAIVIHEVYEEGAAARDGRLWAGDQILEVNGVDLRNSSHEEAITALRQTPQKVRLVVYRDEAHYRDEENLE

pKd | Binder
below the threshold | STYCDYTIEI [FAM71C, Q8NEG0]
3.8 | PLPPEEESWV [GAS2L2, Q8NHY3]

— article PMC9482650, “Quantitative fragmentomics allow affinity mapping of interactomes” (Nature Communications, 2022)
